Laboratory results reported in PMC5651819, “AtSPX1 affects the AtPHR1–DNA-binding equilibrium by binding monomeric AtPHR1 in solution”.

Tests used:
MBP-AtdPHR1 = MBP-AtdPHR1 (Arabidopsis thaliana, UniProt Q94CL7 208-362); experiment: SPR; 1:1 fit at 2.5 nM protein, n = 3; ka 3.5e4 M-1 s-1, kd 0.00049 s-1; SPR (Biacore 3000, SA chip, ~500 RU DNA): 10 mM HEPES pH 7.5, 200 mM NaCl, 0.01% Surfactant P-20, 25 C, 40 ul/min, with or without Pi/InsP6; conditions: protein: recombinant; tags: N-terminal MBP (pMAL-c2x); chain copies: 2; label: 5'-biotin on strand 1; blunt
MBP-AtdPHR1, sequence (Q94CL7 208-362): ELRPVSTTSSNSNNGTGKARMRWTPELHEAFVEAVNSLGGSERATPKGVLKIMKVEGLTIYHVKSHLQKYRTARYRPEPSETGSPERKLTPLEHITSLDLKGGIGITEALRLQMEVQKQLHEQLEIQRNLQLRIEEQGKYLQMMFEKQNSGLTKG

GST-AtSPX1 = target: T1, GST-AtSPX1 (Arabidopsis thaliana, UniProt Q8LBH4 1-256); experiment: SPR; ~1000 nM GST-AtSPX1 after buffer, with or without 5 mM Pi; low near-baseline signal taken as non-specific; SPR (Biacore 3000, SA chip, ~500 RU DNA): 10 mM HEPES pH 7.5, 200 mM NaCl, 0.01% Surfactant P-20, 25 C, 40 ul/min, with or without Pi/InsP6; conditions: protein: recombinant; tags: N-terminal GST (pGEX-2T); label: 5'-biotin on strand 1; blunt
T1 sequence: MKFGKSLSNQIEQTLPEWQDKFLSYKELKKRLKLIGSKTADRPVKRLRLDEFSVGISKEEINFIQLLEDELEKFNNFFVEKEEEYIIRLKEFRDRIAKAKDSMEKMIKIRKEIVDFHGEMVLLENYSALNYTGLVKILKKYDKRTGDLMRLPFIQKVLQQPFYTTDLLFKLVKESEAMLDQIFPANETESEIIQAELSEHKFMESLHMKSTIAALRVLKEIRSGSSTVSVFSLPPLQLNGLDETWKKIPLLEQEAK

B1: 2x P1BS probe (dsDNA)
DNA 1: CAGAGAAAAAAGGATATTCTAATTAGAAACCTTAAGAATATTCTTTTTAATCCC
DNA 2: GGGATTAAAAAGAATATTCTTAAGGTTTCTAATTAGAATATCCTTTTTTCTCTG
With B1 the Kd (MBP-AtdPHR1) was 14 ± 2.4 nM and the binding result (GST-AtSPX1) was “no binding”.
